Test results as given in PMC10357428.

Tested on: CC(=O)Oc1c[nH]c2ccccc12
Assay: purified protein

## CanB (Mtb β-carbonic anhydrase, Rv3588c) (Mycobacterium tuberculosis H37Rv)
  Km: 4.5 ± 0.6 mM
